This is an account of results in patent publication US12383631 (BRIGHT PEAK THERAPEUTICS, dated 2025).

Where a chain is given by its changes, count along the chain named. Names may count otherwise. “And” between values parts separate entries of the source, which are not always exact repeats. Equal values may be shown once.

T1: IL-18 receptor (IL-18Rα/IL-18Rβ) on cells (HEK-Blue IL18R reporter cells, NK-92, KG-1) (human, UniProt Q13478 19-541; O95256 20-599)
T1 sequence (looked up) 1: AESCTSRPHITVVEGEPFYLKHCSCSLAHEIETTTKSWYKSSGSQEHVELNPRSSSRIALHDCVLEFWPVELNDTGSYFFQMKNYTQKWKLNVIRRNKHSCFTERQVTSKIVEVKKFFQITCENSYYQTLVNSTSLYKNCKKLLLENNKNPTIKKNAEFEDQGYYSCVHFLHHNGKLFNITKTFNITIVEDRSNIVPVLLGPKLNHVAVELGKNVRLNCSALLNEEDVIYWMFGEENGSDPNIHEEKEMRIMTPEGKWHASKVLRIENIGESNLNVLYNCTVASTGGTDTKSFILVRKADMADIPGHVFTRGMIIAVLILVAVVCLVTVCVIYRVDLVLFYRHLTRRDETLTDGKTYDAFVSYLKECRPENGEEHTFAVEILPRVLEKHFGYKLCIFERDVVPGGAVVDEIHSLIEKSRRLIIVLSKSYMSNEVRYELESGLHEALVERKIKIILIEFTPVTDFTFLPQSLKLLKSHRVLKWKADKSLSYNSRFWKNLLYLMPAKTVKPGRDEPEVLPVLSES
T1 sequence (looked up) 2: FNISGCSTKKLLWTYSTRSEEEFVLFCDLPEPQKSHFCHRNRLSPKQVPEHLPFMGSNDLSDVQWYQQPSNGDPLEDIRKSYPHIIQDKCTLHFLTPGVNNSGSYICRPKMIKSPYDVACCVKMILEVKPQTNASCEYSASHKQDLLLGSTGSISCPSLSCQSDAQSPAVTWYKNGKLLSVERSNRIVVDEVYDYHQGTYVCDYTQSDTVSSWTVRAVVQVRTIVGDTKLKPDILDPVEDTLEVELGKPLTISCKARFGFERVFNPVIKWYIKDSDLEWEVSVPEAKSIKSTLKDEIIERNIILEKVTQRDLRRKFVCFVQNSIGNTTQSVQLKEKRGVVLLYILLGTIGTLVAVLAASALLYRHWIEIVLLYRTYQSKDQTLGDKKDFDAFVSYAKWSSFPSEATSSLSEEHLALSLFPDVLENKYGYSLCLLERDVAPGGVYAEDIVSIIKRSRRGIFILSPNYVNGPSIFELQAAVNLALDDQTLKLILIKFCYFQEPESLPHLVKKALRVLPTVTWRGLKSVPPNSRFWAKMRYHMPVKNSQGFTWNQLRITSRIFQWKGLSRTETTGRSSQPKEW

T2: human IL-18BP-His (human, UniProt O95998 31-194, limits assumed)
T2 construct: also called His-tagged human IL-18BP; not shown: His tag
T2 sequence (looked up): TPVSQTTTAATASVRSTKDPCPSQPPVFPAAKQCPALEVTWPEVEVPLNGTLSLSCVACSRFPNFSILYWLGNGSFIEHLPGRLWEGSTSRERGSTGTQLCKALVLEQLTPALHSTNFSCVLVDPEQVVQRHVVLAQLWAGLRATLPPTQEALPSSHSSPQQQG

B1: IL-18 polypeptide C163 (ligand)
chain: YFGKLESKLSIIRNLNDQVLFIDQGNRPLFEDMTDSDARDNAPRTIFIISMYKDSQPRGMAVTISVKCEKISTLSAENKIISFKEMNPPDNIKDTKSDIIFFKRSVPGHDNKMQFESSSYEGYFLAAEKERDLFKLILKKEDELGDRSIMFTVQNED
notes: also called V11I, C38A, C76A, Q103K, C127A
B2: IL-18 polypeptide C168 (ligand)
chain: B1 chain with K103Q, S105K
notes: also called V11I, C38A, C76A, S105K, C127A
B3: IL-18 polypeptide of SEQ ID NO: 57 (E6K, C38S, K53A) (ligand)
chain: B1 chain with E6K, I11V, A38S, K53A, A76C, K103Q, A127C
B4: IL-18 polypeptide C164 (ligand)
chain: B1 chain with S55H, K103Q
notes: also called V11I, C38A, S55H, C76A, C127A
B5: IL-18 polypeptide C165 (ligand)
chain: B1 chain with S55R, K103Q
notes: also called V11I, C38A, S55R, C76A, C127A
B6: IL-18 polypeptide of SEQ ID NO: 54 (E06K, K53A, C38S, C68S, C76S, C127S, K70C) (ligand)
chain: B1 chain with E6K, I11V, A38S, K53A, C68S, K70C, A76S, K103Q, A127S
B7: IL-18 polypeptide of SEQ ID NO: 42 (E06K, K53A, S55A, T63A) (ligand)
chain: B1 chain with E6K, I11V, A38C, K53A, S55A, T63A, A76C, K103Q, A127C
B8: IL-18 polypeptide C166 (ligand)
chain: B1 chain with S55T, K103Q
notes: also called V11I, C38A, S55T, C76A, C127A
B9: IL-18 polypeptide of SEQ ID NO: 59 (E6K, C38A, K53A) (ligand)
chain: B1 chain with E6K, I11V, K53A, A76C, K103Q, A127C
B10: IL-18 polypeptide of SEQ ID NO: 62 (E6K, C38A, K53A, C127A) (ligand)
chain: B1 chain with E6K, I11V, K53A, A76C, K103Q
B11: IL-18 polypeptide of SEQ ID NO: 60 (E6K, C38Q, K53A) (ligand)
chain: B1 chain with E6K, I11V, A38Q, K53A, A76C, K103Q, A127C
B12: IL-18 polypeptide of SEQ ID NO: 50 (E06K, K53A, T63A) (ligand)
chain: B1 chain with E6K, I11V, A38C, K53A, T63A, A76C, K103Q, A127C
B13: IL-18 polypeptide C167 (ligand)
chain: B1 chain with K103Q, S105I
notes: also called V11I, C38A, C76A, S105I, C127A
B14: Avelumab/Bavencio (antibody, human IgG1, lambda)
heavy: not shown
light: QSALTQPASVSGSPGQSITISCTGTSSDVGGYNYVSWYQQHPGKAPKLMIYDVSNRPSGVSNRFSGSKSGNTASLTISGLQAEDEADYYCSSYTSSSTRVFGTGTKVTVLGQPKANPTVTLFPPSSEELQANKATLVCLISDFYPGAVTVAWKADGSPVKAGVETTKPSKQSNNKYAASSYLSLTPEQWKSHRSYSCQVTHEGSTVEKTVAPTECS
notes: also called MSB-0010718C
B15: Composition E (LZM-009 conjugated to IL-18 polypeptide of SEQ ID NO: 60) (other)
VH: QVQLVQSGAEVKKPGASVKVSCKASGYTFTSYYMYWVRQAPGQGLEWMGGVNPSNGGTNFNEKFKSRVTITADKSTSTAYMELSSLRSEDTAVYYCARRDYRYDMGFDYWGQGTTVTVSS
VL: EIVLTQSPATLSLSPGERATISCRASKGVSTSGYSYLHWYQQKPGQAPRLLIYLASYLESGVPARFSGSGSGTDFTLTISSLEPEDFATYYCQHSRELPLTFGTGTKVEIK
chain: B1 chain with E6K, I11V, A38Q, K53A, A76C, K103Q, A127C
modifications: chemical linker to the antibody; chemical linker to IL-18

The target of one experiment is T1, IL-18 receptor (IL-18Rα/IL-18Rβ) on …. As to the kind of experiment: cell-based or functional assay.
In the case of B1, the “EC50, HEK-Blue IL18R reporter cells” value stood at 1.5 pM.
Same read-out and setting: the value for B2 was 7.73 pM; that for B3 was 0.86 pM and 0.53 pM.
Same read-out and setting: the value for B4 was 3.14 pM.
On the same count and under the same terms, next, B5: 1.91 pM; B6: 9.12 pM; B7: 0.79 pM.
With B8, the “EC50, HEK-Blue IL18R reporter cells” value came to 4.73 pM.
Still for that read-out and setting: next, B9: 0.268 pM; B10: 0.17 pM; B11: 0.203 pM.
The same measure, in the same setting: next, B12: 1.77 pM; B13: 5.37 pM.

Another experiment addresses T2, human IL-18BP-His. As to the kind of experiment: AlphaLISA of free IL-18BP. The protocol:
The plate is incubated further for 1 hr at room temperature. Under subdued light, 12.5 µL of 2× streptavidin (SA) donor beads are pipetted into each well, and the wells are incubated with shaking for an additional 30 min at room temperature. The AlphaLisa signal is then measured on an Enspire plate reader with 680 and 615 nm as excitation and emission wavelengths, respectively. The dissociation constant (K_D) is calculated based on a variable slope, four parameter analysis using GraphPad PRISM software.
Regarding B1, the equilibrium dissociation constant (Kd) was found to be 50 pM.
Turning to B2, the Kd was found to be 50 pM.
The same measure, in the same setting: next, B3: 50200 pM.
The same measure, in the same setting: the value for B4 was 80 pM; that for B5 was 150 pM.
B6 returned a Kd of 446000 pM.
The same measure, in the same setting: next, B7: 822000 pM; B8: 20 pM; B9: 36000 pM.
Still for that read-out and setting: next, B10: 69600 pM.
B11 yielded a Kd of 24800 pM.
The same measure, in the same setting: next, B12: 340000 pM.
Still for that read-out and setting: next, B13: 40 pM.

Another experiment addresses T1, IL-18 receptor (IL-18Rα/IL-18Rβ) on …. As to the kind of experiment: cell-based or functional assay. The source holds these as a separate data set.
As for B1, the “EC50, IFNγ stimulation, NK92 cells” value is 93 pM.
The same measure, in the same setting: next, B2: 98 pM; B3: 45 pM; B4: 414 pM.
Still for that read-out and setting: the value for B5 was 176 pM.
Same read-out and setting: the value for B6 was 962 pM.
Consider B7, for which the “EC50, IFNγ stimulation, NK92 cells” value was found to be 144 pM.
The same measure, in the same setting: the value for B8 was 98 pM; that for B9 was 15 pM; that for B10 was 26 pM.
Still for that read-out and setting: next, B11: 6 pM.
On the same count and under the same terms, the value for B12 was 26.8 pM; that for B13 was 103 pM.

A further experiment deals with T3, recombinant biotinylated human FcRn (human, UniProt P55899 24-297; P61769 21-119, limits assumed, biotinylated).
T3 construct: also called human neonatal Fc receptor (FcRn)
As to the kind of experiment: AlphaLISA competition at pH 6; competitor: human IgG on acceptor beads. As for the experimental part: The interaction of the unmodified and of conjugated anti-PD1 antibodies with the human neonatal Fc receptor (FcRn) at pH 6 was measured using the AlphaLISA® Human FcRn Binding Kit (AL3095C) from Perkin Elmer (Schwerzenbach, Switzerland).
After 90 min at 23° C. in the dark, AlphaLISA® signal was measured on an EnSpire plate reader (Excitation at 680 nm, Emission at 615 nm) from Perkin Elmer (Schwerzenbach, Switzerland). Binding Affinity of Reference Antibodies and Immunocytokines with the Human Neonatal Fc Receptor as Measured by AlphaLISA
Consider B14, for which the Kd came to 5360 pM.

The target in a further experiment is T1, IL-18 receptor (IL-18Rα/IL-18Rβ) on …. As to the kind of experiment: cell-based or functional assay. This is another data set of the same source.
In the case of B15, the “EC50, IFNγ secretion, NK92 cells” value was 56 pM.
Still for that read-out and setting: the value for B11 was 8 pM.
